Measured values taken from patent US20100260668A1 (published 2010).

Columns and labels:
[1] = target: T1, DLL4 ECD/His tag (R&D 1506-D4-050) (UniProt Q9NR61 27-529); assay: direct bind ELISA, DLL4 on plate; DLL4 VD C-term.; HC Short, LC Long
T1 construct: extracellular domain; Bought antigen coated on the ELISA plate; not shown: His tag

[2] = target: T1, DLL4 ECD/His tag (R&D 1506-D4-050); assay: direct bind ELISA, DLL4 on plate; DLL4 VD C-term.; HC Long, LC Short

B1: DVD482 (bispecific antibody, human IgG1, kappa)
heavy: not shown
light: DIQMTQSPSSLSASVGDRVTITCSASQDISNYLNWYQQKPGKAPKVLIYFTSSLHSGVPSRFSGSGSGTDFTLTISSLQPEDFATYYCQQYSTVPWTFGQGTKVEIKRTVAAPSVFIFPPDIQMTQSPSSLSASVGDRVTITCRASQDVSTAVAWYQQKPGKAPKLLIYSASFLYSGVPSRFSGSGSGTDFTLTISSLQPEDFATTYYCQQSYTGTVTFGQGTKVEIKRTVAAPSVFIFPPSDEQLKSGTASVVCLLNNFYPREAKVQWKVDNALQSGNSQESVTEQDSKDSTYSLSSTLTLSKADYEKHKVYACEVTHQGLSSPVTKSFNRGEC
notes: DVD-Ig; HC short, LC long linker; also called DVD482H; DVD482L
[1]
  EC50: 360 pM

B2: DVD486 (bispecific antibody, human IgG1, kappa)
heavy: not shown
light: DIQMTQSPSSLSASVGDRVTITCRASQVIRRSLAWYQQKPGKAPKLLIYAASNLASGVPSRFSGSGSGTDFTLTISSLQPEDFATYYCQQSNTSPLTFGQGTKVEIKRTVAAPSVFIFPPDIQMTQSPSSLSASVGDRVTITCRASQDVSTAVAWYQQKPGKAPKLLIYSASFLYSGVPSRFSGSGSGTDFTLTISSLQPEDFATTYYCQQSYTGTVTFGQGTKVEIKRTVAAPSVFIFPPSDEQLKSGTASVVCLLNNFYPREAKVQWKVDNALQSGNSQESVTEQDSKDSTYSLSSTLTLSKADYEKHKVYACEVTHQGLSSPVTKSFNRGEC
notes: DVD-Ig; outer AB071 (VEGF), inner AB015 (DLL4); HC short, LC long linker; also called DVD486H; DVD486L
[1]
  EC50: 590 pM

B3: DVD506 (bispecific antibody, human IgG1, kappa)
heavy: not shown
light: DIQMTQSPSSLSASVGDRVTITCSASQDISNYLNWYQQKPGKAPKVLIYFTSSLHSGVPSRFSGSGSGTDFTLTISSLQPEDFATYYCQQYSTVPWTFGQGTKVEIKRTVAAPSVFIFPPDIQMTQSSSYLSVSLGGRVTITCKASDHINNWLAWYQQKPGNAPRLLISGATSLETGVPSRFSGSGSGKDYTLSITSLQTEDVATYYCQQYWSIPLTFGAGTKLELKRTVAAPSVFIFPPSDEQLKSGTASVVCLLNNFYPREAKVQWKVDNALQSGNSQESVTEQDSKDSTYSLSSTLTLSKADYEKHKVYACEVTHQGLSSPVTKSFNRGEC
notes: DVD-Ig; HC short, LC long linker; also called DVD506H; DVD506L
[1]
  EC50: 320 pM

B4: DVD504 (bispecific antibody, human IgG1, kappa)
heavy: not shown
light: DIQMTQSPSSLSASVGDRVTITCRASQVIRRSLAWYQQKPGKAPKLLIYAASNLASGVPSRFSGSGSGTDFTLTISSLQPEDFATYYCQQSNTSPLTFGQGTKVEIKRTVAAPDIQMTQSSSYLSVSLGGRVTITCKASDHINNWLAWYQQKPGNAPRLLISGATSLETGVPSRFSGSGSGKDYTLSITSLQTEDVATYYCQQYWSIPLTFGAGTKLELKRTVAAPSVFIFPPSDEQLKSGTASVVCLLNNFYPREAKVQWKVDNALQSGNSQESVTEQDSKDSTYSLSSTLTLSKADYEKHKVYACEVTHQGLSSPVTKSFNRGEC
notes: DVD-Ig; outer AB071 (VEGF), inner AB072 (DLL4); HC long, LC short linker; also called DVD504H; DVD504L
[2]
  EC50: 530 pM

B5: DVD530 (bispecific antibody, human IgG1, kappa, lambda, L234A L235A)
heavy: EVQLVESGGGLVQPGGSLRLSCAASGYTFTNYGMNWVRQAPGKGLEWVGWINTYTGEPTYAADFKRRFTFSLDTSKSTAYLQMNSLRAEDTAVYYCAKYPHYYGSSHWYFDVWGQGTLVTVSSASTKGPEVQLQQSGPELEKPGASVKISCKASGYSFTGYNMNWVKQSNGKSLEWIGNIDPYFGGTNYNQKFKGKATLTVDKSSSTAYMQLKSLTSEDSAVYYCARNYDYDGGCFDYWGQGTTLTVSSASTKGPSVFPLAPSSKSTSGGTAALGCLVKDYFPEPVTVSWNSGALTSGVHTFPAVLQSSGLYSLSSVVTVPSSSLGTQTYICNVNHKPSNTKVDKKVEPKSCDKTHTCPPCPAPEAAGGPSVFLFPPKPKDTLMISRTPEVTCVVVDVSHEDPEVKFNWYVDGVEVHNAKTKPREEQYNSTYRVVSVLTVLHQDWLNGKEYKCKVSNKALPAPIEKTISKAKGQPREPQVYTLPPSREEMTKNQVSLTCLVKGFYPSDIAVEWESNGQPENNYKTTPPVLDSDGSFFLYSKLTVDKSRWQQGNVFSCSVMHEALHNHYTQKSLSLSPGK
light: DIQMTQSPSSLSASVGDRVTITCSASQDISNYLNWYQQKPGKAPKVLIYFTSSLHSGVPSRFSGSGSGTDFTLTISSLQPEDFATYYCQQYSTVPWTFGQGTKVEIKRTVAAPSVFIFPPQAVVTQESALTTSPGETVTLTCRSSTGAVTTSNYANWVQEKPDHLFTGLIGGTNNRAPGVPARFSGSLIGDKAALTITGAQTEDEAIYFCALWYSNHWVFGGGTKLTVLGQPKAAPSVTLFPPSSEELQANKATLVCLISDFYPGAVTVAWKADSSPVKAGVETTTPSKQSNNKYAASSYLSLTPEQWKSHRSYSCQVTHEGSTVEKTVAPTECS
notes: DVD-Ig; HC short, LC long linker; also called DVD530H; DVD530L
[1]
  EC50: 220 pM

B6: DVD464 (bispecific antibody, human IgG1, kappa)
heavy: not shown
light: DIQMTQSPSSLSASVGDRVTITCRASQVIRRSLAWYQQKPGKAPKLLIYAASNLASGVPSRFSGSGSGTDFTLTISSLQPEDFATYYCQQSNTSPLTFGQGTKVEIKRTVAAPSVFIFPPDIVMTQSPDSLAVSLGERATISCRASESVDNYGISFMKWFQQKPGQPPKLLIYAASNQGSGVPDRFSGSGSGTDFTLTISSLQAEDVAVYYCQQSKEVPWTFGGGTKVEIKRTVAAPSVFIFPPSDEQLKSGTASVVCLLNNFYPREAKVQWKVDNALQSGNSQESVTEQDSKDSTYSLSSTLTLSKADYEKHKVYACEVTHQGLSSPVTKSFNRGEC
notes: DVD-Ig; outer AB071 (VEGF), inner AB069 (DLL4); HC short, LC long linker; also called DVD464H; DVD464L
[1]
  EC50: 800 pM
